Assay results taken from US20040014649A1 (RIGEL PHARMACEUTICALS, published 2004).

Tests used:
[1] = target: T1, human B-cell associated protein-37 (human BAP-37) (human, UniProt O35129 1-299 (mouse entry), limits assumed); assay: cell-based or functional assay
[2] = target: T1, human B-cell associated protein-37 …; assay: cell-based or functional assay; remark: listed apart in the source

T1 sequence (O35129 whole entry): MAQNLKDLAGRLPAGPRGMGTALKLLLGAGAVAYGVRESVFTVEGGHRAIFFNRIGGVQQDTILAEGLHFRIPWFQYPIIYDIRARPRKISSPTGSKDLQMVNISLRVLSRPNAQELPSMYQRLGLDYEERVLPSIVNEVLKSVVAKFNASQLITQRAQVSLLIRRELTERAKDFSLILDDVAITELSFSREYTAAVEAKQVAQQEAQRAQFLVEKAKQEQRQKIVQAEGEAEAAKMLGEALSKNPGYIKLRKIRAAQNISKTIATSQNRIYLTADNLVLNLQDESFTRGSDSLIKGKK

Binder	endogenous epsilon inhibition ratio (TAQMAN quantitative PCR, +IL-4/+Dox to +IL-4/-Dox) [1]	Reporter Ratio (A5T4 reporter line, IL-4 induced germline epsilon transcription) [2]
TGVHVELQINRSIMHYISSP [peptide CL08wt]	2.15	1.39
TGAAVELQINRSIMHYISSP [peptide CL08VH]	–	1.17
TGVHVELQIAASIMHYISSP [peptide CL08NR]	–	1.6
